Measured values: US11434299 (TENEOBIO, dated 2022)

Target: T1, human BCMA (B-Cell Maturation Antigen) on NCI-H929 cells (human, UniProt Q02223 1-184)
T1 construct: whole, on cells; Endogenous BCMA on NCI-H929 myeloma cells; also called TNFRSF17; H929 cells (BCMA+, lambda-)
T1 sequence (looked up): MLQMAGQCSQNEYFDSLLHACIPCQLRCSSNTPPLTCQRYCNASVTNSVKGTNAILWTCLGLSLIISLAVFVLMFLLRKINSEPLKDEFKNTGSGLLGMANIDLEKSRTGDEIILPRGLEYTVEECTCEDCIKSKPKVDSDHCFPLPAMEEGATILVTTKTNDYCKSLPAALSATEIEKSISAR
Test: flow cytometry, HEK supernatants on NCI-H929 cells (BCMA+)
Description: Supernatants of all antibodies were also tested by flow cytometry for binding to RPMI-8226 cells (BCMA+, lambda+) and H929 cells (BCMA+, lambda−). The samples were measured by flow cytometry using a Guava easyCyte 8HT instrument from EMD Millipore and analyzed using guavaSoft. Bound antibodies were detected with goat anti-human IgG F(ab')_2 conjugated to PE (Southern Biotech 2042-09). All antibodies were diluted in PBS with 1% BSA. Positive staining was determined by comparison to staining with a human IgG1 isotype control. The NCI-H929 and RPMI-8226 cell lines are human multiple myeloma lines expressing human BCMA, which were obtained from the American Type Culture Collection (ATCC) and cultured according to ATCC recommendations.

- binding result: binds
B1: SEQ ID NO 53 (antibody, V domains shown)
VH: EVQLLESGGGLVQPGGSLRLSCAASGFTFSNYAMNWVRQAPGKGLEWVSGIIGSGGSTYYADSVKGRFTISRDNSKNTLYLQMNSLRVEDTAVYYCVKDWNTTMITERGQGTLVTVSS
notes: UniAb: CH1 deleted, no light chain; HEK supernatant
